Measurements as given in patent publication US20240254200A1 (APITBIO, published 2024).

Columns and labels:
[1] = molecular target: T1, GST-preS1(1-56)-strep of HBV genotype A (hepatitis B virus genotype A, UniProt P08515 1-218 = GST); assay: indirect ELISA, genotype A GST-preS1(1-56)-strep (NPLGFFP) coated, serially diluted antibody
T1 construct: Expressed in E. coli; also called recombinant preS1 of HBV genotype A; preS1 antigen of genotype A; not shown: strep tag

[2] = molecular target: T1, GST-preS1(1-56)-strep of HBV genotype A; assay: BLI (Octet RED384), antibody captured on anti-human Fc tips, antigen 25-1.5625 nM in solution, 1:1 model
[3] = molecular target: T2, L1CAM on the human ovarian cancer cell line SKOV3 (human, UniProt P32004 20-1257); assay: flow cytometry on SKOV3 cells, anti-human IgG Fc-FITC
T2 construct: whole, on cells; The cells express L1CAM but not preS1; also called SKOV3 cells

[4] = molecular target: T1, GST-preS1(1-56)-strep of HBV genotype A; assay: indirect ELISA, GST-preS1(1-56)-strep coated, serially diluted AbS0, anti-human IgG Fc-HRP
[5] = molecular target: T3, GST-preS1(1-56)-strep of HBV genotype B (hepatitis B virus genotype B, UniProt P08515 1-218 = GST); assay: as above
T3 construct: Expressed in E. coli; also called recombinant preS1 of genotype B; not shown: strep tag

[6] = molecular target: T4, GST-preS1(1-56)-strep of HBV genotype D (hepatitis B virus genotype D, UniProt P08515 1-218 = GST); assay: as above
T4 construct: Expressed in E. coli; also called recombinant preS1 of genotype D; not shown: strep tag

[7] = molecular target: T5, GST-preS1(1-56)-strep of HBV genotype C (hepatitis B virus genotype C, UniProt P08515 1-218 = GST); assay: as above
T5 construct: Expressed in E. coli; also called wild type preS1 antigen; recombinant preS1 of genotype C; not shown: strep tag

[8] = molecular target: T5, GST-preS1(1-56)-strep of HBV genotype C; assay: indirect ELISA, genotype C GST-preS1(1-56)-strep coated (100 ng), antibody from culture supernatant, anti-human IgG Fc-HRP
BSA = molecular target: T6, BSA (Bos taurus, UniProt P02769); assay: indirect ELISA of monoclonal Fab phage on coated antigen, anti-M13-HRP
T6 construct: control antigen of the phage ELISA; also called bovine serum albumin
T6 sequence (P02769 25-607 limits assumed): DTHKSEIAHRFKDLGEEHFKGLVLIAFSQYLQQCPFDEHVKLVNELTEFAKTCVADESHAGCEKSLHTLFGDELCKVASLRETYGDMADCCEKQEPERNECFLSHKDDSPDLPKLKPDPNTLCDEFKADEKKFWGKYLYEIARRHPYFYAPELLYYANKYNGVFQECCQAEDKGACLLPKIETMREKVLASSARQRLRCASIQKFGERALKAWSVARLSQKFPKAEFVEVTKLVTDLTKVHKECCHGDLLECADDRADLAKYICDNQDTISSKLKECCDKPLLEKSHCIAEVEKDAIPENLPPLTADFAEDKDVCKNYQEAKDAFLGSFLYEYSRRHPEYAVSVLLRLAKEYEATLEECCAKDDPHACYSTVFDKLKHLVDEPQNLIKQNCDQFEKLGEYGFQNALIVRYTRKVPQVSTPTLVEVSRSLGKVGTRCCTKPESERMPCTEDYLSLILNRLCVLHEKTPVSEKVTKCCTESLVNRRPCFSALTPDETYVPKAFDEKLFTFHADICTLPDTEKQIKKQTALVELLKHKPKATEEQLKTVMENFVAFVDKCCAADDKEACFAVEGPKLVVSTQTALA

T1 sequence (P08515 whole entry): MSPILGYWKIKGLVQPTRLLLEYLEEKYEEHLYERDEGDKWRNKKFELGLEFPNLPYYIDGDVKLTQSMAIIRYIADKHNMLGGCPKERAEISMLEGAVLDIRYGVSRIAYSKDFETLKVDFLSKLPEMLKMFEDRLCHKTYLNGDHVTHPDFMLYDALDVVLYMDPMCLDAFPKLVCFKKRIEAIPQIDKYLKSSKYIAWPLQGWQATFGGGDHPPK
T5 sequence (P08515 whole entry): as above
T3 sequence (P08515 whole entry): as above
T4 sequence (P08515 whole entry): as above
T2 sequence (P32004 20-1257): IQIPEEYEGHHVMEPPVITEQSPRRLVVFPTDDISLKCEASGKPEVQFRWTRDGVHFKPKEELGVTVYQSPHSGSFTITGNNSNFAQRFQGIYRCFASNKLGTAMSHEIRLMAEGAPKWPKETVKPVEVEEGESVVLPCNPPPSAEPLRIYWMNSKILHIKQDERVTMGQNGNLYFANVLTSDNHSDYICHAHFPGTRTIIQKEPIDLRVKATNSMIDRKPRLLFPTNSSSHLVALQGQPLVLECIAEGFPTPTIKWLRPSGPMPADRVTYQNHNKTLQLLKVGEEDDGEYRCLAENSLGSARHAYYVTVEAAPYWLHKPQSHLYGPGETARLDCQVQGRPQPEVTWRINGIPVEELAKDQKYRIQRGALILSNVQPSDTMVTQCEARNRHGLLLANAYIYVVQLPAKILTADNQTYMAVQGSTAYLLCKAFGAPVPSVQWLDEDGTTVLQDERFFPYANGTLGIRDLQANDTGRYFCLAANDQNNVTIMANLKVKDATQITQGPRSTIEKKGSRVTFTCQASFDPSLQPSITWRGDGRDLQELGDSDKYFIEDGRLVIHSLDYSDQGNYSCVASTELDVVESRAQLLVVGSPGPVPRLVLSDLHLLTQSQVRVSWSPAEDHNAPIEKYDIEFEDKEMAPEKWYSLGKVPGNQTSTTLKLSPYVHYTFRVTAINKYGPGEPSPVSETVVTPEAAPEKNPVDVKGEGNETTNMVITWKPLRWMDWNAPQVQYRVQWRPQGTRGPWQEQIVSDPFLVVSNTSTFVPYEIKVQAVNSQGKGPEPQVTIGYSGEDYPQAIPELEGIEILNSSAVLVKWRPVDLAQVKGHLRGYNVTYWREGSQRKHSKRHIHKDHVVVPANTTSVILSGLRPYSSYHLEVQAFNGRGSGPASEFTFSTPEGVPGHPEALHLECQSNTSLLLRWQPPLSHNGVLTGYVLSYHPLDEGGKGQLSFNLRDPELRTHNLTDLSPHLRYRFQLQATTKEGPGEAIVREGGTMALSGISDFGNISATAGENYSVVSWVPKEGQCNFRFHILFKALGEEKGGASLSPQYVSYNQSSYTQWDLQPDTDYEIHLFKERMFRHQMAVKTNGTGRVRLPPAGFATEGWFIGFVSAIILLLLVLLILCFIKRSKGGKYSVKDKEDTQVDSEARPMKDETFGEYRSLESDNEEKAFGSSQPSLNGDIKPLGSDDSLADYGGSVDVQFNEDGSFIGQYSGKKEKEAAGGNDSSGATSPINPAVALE

B1: AbS0 antibody (AbS0 Fab converted into human IgG1) (antibody, V domains shown)
VH: EVQLVESGGGLVQPGGSLRLSCAASGFTFSTYAMSWVRQAPGKGLEWVSSISQSGGYTNYADSVKGRFTISRDNSKNTLYLQMNSLRAEDTAVYYCAKVIYASLDYWGQGTLVTVSS
VL: DIQMTQSPSSLSASVGDRVTITCRASQSIASYLNWYQQKPGKAPKLLIYATSRLQSGVPSRFSGSGSGTDFTLTISSLQPEDFATYYCQQSYSSPYTFGQGTKVEIK
notes: also called AbS0 mAb; wild type AbS0
- EC50 (read off the curve) [1]: ~0.06 µg/mL
- Kd [2]: 0.5 nM
- koff [2]: 0.000194 s⁻¹
- kon [2]: 392000 M⁻¹ s⁻¹
- binding result [3]: no binding
- EC50 (read off the curve) [4]: ~0.04 µg/mL
- EC50 (read off the curve) [5]: ~0.04 µg/mL
- EC50 (read off the curve) [6]: ~0.04 µg/mL
- EC50 (read off the curve) [7]: ~0.04 µg/mL
- EC50 (read off the curve) [8]: ~0.003 µg/mL

B2: AbS0 Fab phage (Fab, V domains shown)
VH: B1 VH
VL: B1 VL
- binding result (BSA): no binding
